Experimental data published in patent US8476407B2, “Metallopeptide catalysts” (William Marsh Rice University, priority 2009, dated 2013).
Marks after values point to notes of the source that are not given here. Residues, ends and D or L forms follow the SMILES beside them. No end group written: not given here.

Tests used:
[1] = system: K3a,eRh2; test: Covalent modification of E3gX peptides with diazo reagent 1 catalysed by K3a,eRh2; type: biochemical; conditions: for krel, relative modification rate: initial rate of product formation at 1 hour, corrected for catalyst concentration; for modification of variable residue (in words): metallopeptide catalyst K3a,eRh2 and diazo reagent 1
Description: Binding the dirhodium center at positions a and e ensures that the metal will be held proximal to the coil-coil interface, and the a, e spacing serves to stabilize the necessary helical structure.
Covalent modification of variable residue g was then examined.
Relative modification rates (krel) were based on conversion at 1 hour, which corrects for catalyst loading and assumes first-order catalysis.

[2] = Circular dichroism (CD) helicity of peptides and dirhodium adducts; type: physicochemical; conditions: for [θ]220, residual molar ellipticity: CD at 220 nm, water; for effect of dirhodium binding on helicity (in words): CD spectroscopy; for fH, helicity content: calculated from [θ]220, fH = ([θ]220 − [θ]c)/([θ]inf − [θ]c); for Rel. Hel %, relative helicity: calculated with [θ]inf = [θ]220 of EE4-Rh2(OAc)2; for fH (TFE), helicity content: calculated with [θ]inf = [θ]220 of EE4 in 100% TFE
Description: Peptides were prepared having 18 amino acids and a propensity toward helicity due to an alanine-rich sequence (Table 1). A complete turn of an α-helix requires about three or four amino acids, so carboxylate side chains (Asp, Glu) were placed in an i, i+3 or an i, i+4 relationship.
The peptides reacted with cis-Rh2(OAc)2(TFA)2, producing adducts with bridging dirhodium centers for both i, i+3 and i, i+4 carboxylate spacing. Circular dichroism (CD) spectroscopy assessed the effect of dirhodium binding on helicity.

[3] = Solubility on isolation; type: physicochemical; conditions: isolation after metalation in aqueous buffer
Description: (§1) Purified Jun variant was metalated with Rh2(OAc)2(tfa)2 in aqueous buffer. […] In initial studies at 4° C., crude Jun(Rh2) directly from the metalation process could be used in modification reactions with activity identical to that of purified material, thus avoiding time-consuming and unnecessary material loss that accompanied isolation.

[4] = molecular target: T1, bZip domain of c-Fos (Homo sapiens, UniProt P01100, A167K/D174T/K188A/T181D); test: Covalent modification of c-Fos with diazo reagent 1 catalysed by metallopeptide; type: biochemical; conditions: for c-Fos residue modified: MS/MS fragmentation analysis; for conversion of c-Fos: 45 h, metallopeptide and diazo 1 added in small portions
T1 sequence (P01100 162-193 A167K/D174T/T181D/K188A limits assumed): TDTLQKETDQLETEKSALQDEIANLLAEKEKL
Description: FIG. 5. MALDI-TOF MS spectra of c-Fos (SEQ ID NO: 15) modification catalyzed by Jun(Rh2) (A) (SEQ ID NO: 14) and Max(Rh2) (B)(SEQ ID NO: 16). Reactions were 100 μM in substrate at pH 6.5. Metallopeptide and diazo 1 were added portion-wise to final concentrations of 200 μM and 5 mM, respectively. Sequences illustrate the expected alignment of the coiled coils and the site of modification (B) In the inset table, the ratio in parentheses indicates the ratio of singly to doubly modified product.
Metallopeptide Jun(Rh2) was prepared based on an affinity-optimized c-Jun variant with glutamate residues in g and […] positions. The target was the bZip domain of c-Fos, an oncogene product that regulates transcription by forming a heterodimeric coiled coil with c-Jun.
as §1
Catalytic activity was also investigated for a second metallopeptide based on the leucine-zipper Max.
For Jun(Rh2), MALDI-TOF MS/MS analysis established that Gln19 (position e) was modified. […] In the case of Max(Rh2), the dominant fragmentation pathway was cleavage of the modifying group.

[5] = molecular target: T2, Fos (Homo sapiens, UniProt P01100, A167K/D174T/K188A/T181D); test: Temperature-dependent folding of Fos-metallopeptide coiled coil; type: physicochemical; conditions: Fos-Max(Rh2) temperature-dependent folding
T2 sequence (P01100 162-193 A167K/D174T/T181D/K188A limits assumed): T1 sequence (P01100 162-193 A167K/D174T/T181D/K188A limits assumed)
Description: Amazingly, site-specific reactivity can be templated on molecular recognition in interactions with such low affinities that they are uncharacterizable by available methods. Because metallopeptide Jun(Rh2) has ≧100 μM affinity for Fos, reactions at 10 μM successful even though the desired Fos-Jun(Rh2) dimer is not the major species.

[6] = 50 mol % K3a,eRh2, 10 mM diazo 1 added in two portions, 50 μM substrate, pH 6.2
[7] = 20 mol % K3a,eRh2, 10 mM diazo 1 added in two portions, 50 μM substrate, pH 6.2

Compound	krel, relative modification rate [1]	[θ]220, residual molar ellipticity [2] [deg cm^2 dmol-res^-1]	effect of dirhodium binding on helicity (in words) [2]	fH, helicity content [2]	Rel. Hel %, relative helicity [2] [%]	fH (TFE), helicity content [2]	further results
N[C@@H](CS)C(=O)O [Cys]	560						% conv. at 24 h ([1]; 10 mol % K3a,eRh2, 2.5 mM diazo 1, 50 μM substrate, pH 6.2, room temperature): 78%
N[C@@H](Cc1c[nH]cn1)C(=O)O [His]	20						% conv. at 24 h [1, 6]: 17^g %; modification of variable residue (in words) [1]: modest conversion
N=C(N)NCCC[C@H](N)C(=O)O [Arg]	100						% conv. at 24 h [1, 6]: 73%
Ac-YGKAAAAEAAAEKAAAAK-NH2 [EE4]		-12300	increased helicity	41	75	46	
Ac-YGKAAAAEAGADKAAAAK-NH2 [ED4G]		-1100		9	17	10	
Ac-KAEAAAEAK-NH2 [sEE4]		-400		9	13	8	
Ac-YGKAAAAEAGEAKAAAAK-NH2 [EE3G]		-2500	becomes helical	13	24	15	
Ac-YGKAAAAEAAEAKAAAAK-NH2 [EE3]		-11500	increased helical	39	70	44	
Ac-YGKAAAADAADAKAAAAK-NH2 [DD3]		-5300	completely disrupt helicity	21	39	24	
CC[C@H](C)[C@H](NC(=O)[C@H](CCC(N)=O)NC(=O)[C@H](CCC(N)=O)NC(=O)[C@H](CCCNC(=N)N)NC(=O)[C@H](CC(C)C)NC(=O)[C@H](CO)NC(=O)[C@H](CC(N)=O)NC(=O)[C@H](C)NC(=O)[C@@H](NC(=O)[C@H](CO)NC(=O)[C@H](C)NC(=O)[C@H](CCC(=O)O)NC(=O)[C@H](CO)NC(=O)[C@H](CO)NC(=O)[C@@H](NC(=O)[C@H](CCC(=O)O)NC(=O)[C@H](C)NC(=O)[C@H](CCCCN)NC(=O)[C@H](CC(C)C)NC(=O)[C@@H](NC(=O)[C@H](CCCCN)NC(=O)[C@@H](NC(=O)[C@H](CCCNC(=N)N)NC(=O)[C@H](CCC(N)=O)NC(=O)[C@H](CCC(N)=O)NC(=O)[C@H](CC(C)C)NC(=O)[C@H](CCC(N)=O)NC(=O)[C@H](C)NC(=O)[C@H](C)NC(C)=O)C(C)C)[C@@H](C)O)[C@@H](C)CC)[C@@H](C)O)C(=O)N[C@@H](C)C(=O)N[C@@H](CCC(N)=O)C(=O)N[C@@H](CC(C)C)C(N)=O [Jun(Rh2)] (Ac-AAQLQQRVKTLKAEISSEASTANSLRQQIAQL-NH2; N-terminus and C-terminus assumed)							solubility [3]: poor solubility; c-Fos residue modified [4]: Gln19
Ac-YGKAAAAEAADAKAAAAK-NH2 [ED3]		-11400	completely disrupt helicity	38	70	43	
NC(=O)CC[C@H](N)C(=O)O [Gln]	260						% conv. ([1]; 10 mol % K3a,eRh2, reaction time 6 hours, 2.5 mM diazo 1, 50 μM substrate, pH 6.2): > 95%
Max(Rh2): dirhodium metallopeptide based on the leucine-zipper Max (SEQ ID NO: 16) (ARRKNFTFQQNINNLKRQEALLEQQVRAL; also: dirhodium metal complex)							TM [5]: 20 °C; conversion of c-Fos ([4]; 4° C.): 72%; c-Fos residue modified [4]: both Glu14 and Glu21; conversion of c-Fos ([4]; −15° C.): 83%
Ac-YGKAAAADAAEAKAAAAK-NH2 [DE3]		-8000	completely disrupt helicity	29	52	32	
Ac-YGKAAAAEAGAEKAAAAK-NH2 [EE4G]		-1900		12	21	13	
N[C@@H](CC(=O)O)C(=O)O [Asp]	100						% conv. at 24 h [1, 7]: 53%; modification of variable residue (in words) [1]: modest conversion
NCCCC[C@H](N)C(=O)O [Lys]	20						% conv. at 24 h [1, 6]: 8^g %; modification of variable residue (in words) [1]: modest conversion
C[C@@H](O)[C@H](N)C(=O)O [Thr]							modification of variable residue (in words) [1]: not observed
Ac-YGKAAAADAAADKAAAAK-NH2 [DD4]		-5700	increased helicity	22	41	25	
N[C@@H](CCC(=O)O)C(=O)O [Glu]	130						% conv. at 24 h [1, 7]: 76%
Ac-YGKAAAADAGADKAAAAK-NH2 [DD4G]		-1100		9	17	11	
